B1: library; numbered along this chain (parent)
chain: MRKPRAAVGSGHRKQAASQEGRQKHAKNNSQAKPSACDGLARQPEEVVLQASVSSYHLFRDVAEVTAFRGSLLSWYDQEKRDLPWRRRAEDEMDLDRRAYAVWVSEVMLQQTQVATVINYYTGWMQKWPTLQDLASASLEEVNQLWAGLGYYSRGRRLQEGARKVVEELGGHMPRTAETLQQLLPGVGRYTAGAIASIAFGQATGVVDGNVARVLCRVRAIGADPSSTLVSQQLWGLAQQLVDPARPGDFNQAAMELGATVCTPQRPLCSQCPVESLCRARQRVEQEQLLASGSLSGSPDVEECAPNTGQCHLCLPPSEPWDQTLGVVNFPRKASRKPPREESSATCVLEQPGALGAQILLVQRPNSGLLAGLWEFPSVTWEPSEQLQRKALLQELQRWAGPLPATHLRHLGEVVHTFSHIKLTYQVYGLALEGQTPVTTVPPGARWLTQEEFHTAAVSTAMKKVFRVYQGQQPGTCMGSKRSQVSSPCSRKKPRMGQQVLDNFFRSHISTDAHSLNSAAQ

Variants of: B1
Assay: 8OG:A repair function score (normalized; synonymous = 0, nonsense = -1) (normalized log-likelihood score); higher = more repair activity (WT-like)
Conditions: with 8OG:A DNA repair reporter (GFP) in HEK-293 MUTYH KO cells
How it was run: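 Per-tile Rosace fitness scores were converted to a normalized repair function score anchored on synonymous and nonsense distributions. That scale puts synonymous medians at 0 and nonsense medians at -1. Variants with starting counts under 300 counts per million were discarded. Input came from sorting viable mCherry+ MUTYH knockout HEK-293 cells, carrying lentiviral MUTYH cDNA NNN codon-scan libraries in 10 pg/ml doxycycline and an 8OG:A GFP repair reporter, into GFP+ and GFP− bins at 72 h, three replicates per tile, followed by tile amplicon sequencing.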
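Note: cells sorted at 72 h after reporter transfection.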

8OG:A repair function score: each site, then its substitutions
Y151: V -0.583; R -0.389; F -0.064; H -0.509; W -0.534; E -1.21; G -1.03; C -0.944; M -0.45; I -0.244; D -1; L -0.0762; N -1.33; Q -0.672; K -0.808; P -1.25; T -0.587; A -0.816; S -1.29
R154: H -0.851; E -1.23; K -0.609; D -1.11; I -0.971; A -0.88; C -1.08; F -1.05; G -1.12
Y152: N -0.779; D -1.08; W -0.762; F -0.371; Q -0.592; R -0.956; P -1.28; G -0.713; I -0.496; V -0.573; K -1.07; A -0.881; S -1.19; C -0.782; T -0.854; L -0.707; H -0.695; M -0.3; E -1.16
W146: D -1.2; F -0.152; S -0.39; P -1.14; I -0.138; Y -0.532; N -0.671; T -0.294; L -0.263; K -0.739; R -1.28; G -0.399; E -1.03; M -0.182; V -0.296; H -0.738; Q -0.345; C -0.255; A -0.448
L149: N -0.783; F -0.43; E -1.24; A -0.323; R -0.729; Y -0.657; W -1.46; G -0.743; I -0.462; M -0.664; P -0.979; S -0.335; Q -1.06; V -0.906; T -0.81; K -1.17; D -1.19; C -0.585; H -1.82
L145: Y 0.0659; W -0.0219; S 0.0372; R -0.0437; V -0.0541; T -0.001
A147: G -0.174; E -0.144; H -0.241; F -0.305; I -0.125; V -0.14; Q 0.00492; L -0.207; N -0.0408; P -0.734; K -0.229; R -0.11; S 0.0618; W -0.902; T -0.154; M -0.0248; Y -0.549; D -0.118; C -0.226
G150: L -1.18; S -1.26; Y -0.803; Q -1.58; M -1.44; N -1.15; R -1.3; K -1.27; D -1.38; I -1.78; H -1.12; E -1.13; T -1.35; A -1.42; F -1.66; P -1.54; W -1.09; V -1.22; C -0.982
G148: K -0.475; H -0.166; W -1.48; L -1.31; D -0.544; Q -0.44; T -0.549; C -0.72; V -1.08; M -1.1; A -0.564; I -1.27; E -0.792; Y -0.677; F -0.794; S -0.286; P -1.1; R -0.782; N -0.669
S153: K -0.0744; M -0.237; N -0.152; I -0.105; V -0.00826; T 0.158; E -0.117; F 0.0735; G -0.237; Q -0.127; H -0.0258; R -0.265; D -0.368; L 0.0439; C -0.074; W -0.198; P 0.0253; A 0.0766; Y -0.143

Source: the supplement of paper PMC11908140
